Experimental data as given in article PMC8131915 (The Journal of Biological Chemistry, 2021).

Assays:
[1] = biological target: transcription-associated protein 1 (Tra1) (S. cerevisiae (endogenous), UniProt P38811 1-3744); assay: cross-linking
[2] = biological target: SAGA complex (Spt7-TAP purified) (Saccharomyces cerevisiae, UniProt P35177;P38915;P38811;P50875;P06844;Q12060;P38129;P53040;Q05027;Q12030;Q03761;Q03 …); assay: fluorescence polarization
[3] = biological target: SAGA complex (Spt7-TAP purified);TBP (Saccharomyces cerevisiae;Saccharomyces …, UniProt P35177;P38915;P38811;P50875;P06844;Q12060;P38129;P53040;Q05027;Q12030;Q03761;Q03 …, |); assay: EMSA

Sequence of transcription-associated protein 1 (Tra1) (P38811 whole entry): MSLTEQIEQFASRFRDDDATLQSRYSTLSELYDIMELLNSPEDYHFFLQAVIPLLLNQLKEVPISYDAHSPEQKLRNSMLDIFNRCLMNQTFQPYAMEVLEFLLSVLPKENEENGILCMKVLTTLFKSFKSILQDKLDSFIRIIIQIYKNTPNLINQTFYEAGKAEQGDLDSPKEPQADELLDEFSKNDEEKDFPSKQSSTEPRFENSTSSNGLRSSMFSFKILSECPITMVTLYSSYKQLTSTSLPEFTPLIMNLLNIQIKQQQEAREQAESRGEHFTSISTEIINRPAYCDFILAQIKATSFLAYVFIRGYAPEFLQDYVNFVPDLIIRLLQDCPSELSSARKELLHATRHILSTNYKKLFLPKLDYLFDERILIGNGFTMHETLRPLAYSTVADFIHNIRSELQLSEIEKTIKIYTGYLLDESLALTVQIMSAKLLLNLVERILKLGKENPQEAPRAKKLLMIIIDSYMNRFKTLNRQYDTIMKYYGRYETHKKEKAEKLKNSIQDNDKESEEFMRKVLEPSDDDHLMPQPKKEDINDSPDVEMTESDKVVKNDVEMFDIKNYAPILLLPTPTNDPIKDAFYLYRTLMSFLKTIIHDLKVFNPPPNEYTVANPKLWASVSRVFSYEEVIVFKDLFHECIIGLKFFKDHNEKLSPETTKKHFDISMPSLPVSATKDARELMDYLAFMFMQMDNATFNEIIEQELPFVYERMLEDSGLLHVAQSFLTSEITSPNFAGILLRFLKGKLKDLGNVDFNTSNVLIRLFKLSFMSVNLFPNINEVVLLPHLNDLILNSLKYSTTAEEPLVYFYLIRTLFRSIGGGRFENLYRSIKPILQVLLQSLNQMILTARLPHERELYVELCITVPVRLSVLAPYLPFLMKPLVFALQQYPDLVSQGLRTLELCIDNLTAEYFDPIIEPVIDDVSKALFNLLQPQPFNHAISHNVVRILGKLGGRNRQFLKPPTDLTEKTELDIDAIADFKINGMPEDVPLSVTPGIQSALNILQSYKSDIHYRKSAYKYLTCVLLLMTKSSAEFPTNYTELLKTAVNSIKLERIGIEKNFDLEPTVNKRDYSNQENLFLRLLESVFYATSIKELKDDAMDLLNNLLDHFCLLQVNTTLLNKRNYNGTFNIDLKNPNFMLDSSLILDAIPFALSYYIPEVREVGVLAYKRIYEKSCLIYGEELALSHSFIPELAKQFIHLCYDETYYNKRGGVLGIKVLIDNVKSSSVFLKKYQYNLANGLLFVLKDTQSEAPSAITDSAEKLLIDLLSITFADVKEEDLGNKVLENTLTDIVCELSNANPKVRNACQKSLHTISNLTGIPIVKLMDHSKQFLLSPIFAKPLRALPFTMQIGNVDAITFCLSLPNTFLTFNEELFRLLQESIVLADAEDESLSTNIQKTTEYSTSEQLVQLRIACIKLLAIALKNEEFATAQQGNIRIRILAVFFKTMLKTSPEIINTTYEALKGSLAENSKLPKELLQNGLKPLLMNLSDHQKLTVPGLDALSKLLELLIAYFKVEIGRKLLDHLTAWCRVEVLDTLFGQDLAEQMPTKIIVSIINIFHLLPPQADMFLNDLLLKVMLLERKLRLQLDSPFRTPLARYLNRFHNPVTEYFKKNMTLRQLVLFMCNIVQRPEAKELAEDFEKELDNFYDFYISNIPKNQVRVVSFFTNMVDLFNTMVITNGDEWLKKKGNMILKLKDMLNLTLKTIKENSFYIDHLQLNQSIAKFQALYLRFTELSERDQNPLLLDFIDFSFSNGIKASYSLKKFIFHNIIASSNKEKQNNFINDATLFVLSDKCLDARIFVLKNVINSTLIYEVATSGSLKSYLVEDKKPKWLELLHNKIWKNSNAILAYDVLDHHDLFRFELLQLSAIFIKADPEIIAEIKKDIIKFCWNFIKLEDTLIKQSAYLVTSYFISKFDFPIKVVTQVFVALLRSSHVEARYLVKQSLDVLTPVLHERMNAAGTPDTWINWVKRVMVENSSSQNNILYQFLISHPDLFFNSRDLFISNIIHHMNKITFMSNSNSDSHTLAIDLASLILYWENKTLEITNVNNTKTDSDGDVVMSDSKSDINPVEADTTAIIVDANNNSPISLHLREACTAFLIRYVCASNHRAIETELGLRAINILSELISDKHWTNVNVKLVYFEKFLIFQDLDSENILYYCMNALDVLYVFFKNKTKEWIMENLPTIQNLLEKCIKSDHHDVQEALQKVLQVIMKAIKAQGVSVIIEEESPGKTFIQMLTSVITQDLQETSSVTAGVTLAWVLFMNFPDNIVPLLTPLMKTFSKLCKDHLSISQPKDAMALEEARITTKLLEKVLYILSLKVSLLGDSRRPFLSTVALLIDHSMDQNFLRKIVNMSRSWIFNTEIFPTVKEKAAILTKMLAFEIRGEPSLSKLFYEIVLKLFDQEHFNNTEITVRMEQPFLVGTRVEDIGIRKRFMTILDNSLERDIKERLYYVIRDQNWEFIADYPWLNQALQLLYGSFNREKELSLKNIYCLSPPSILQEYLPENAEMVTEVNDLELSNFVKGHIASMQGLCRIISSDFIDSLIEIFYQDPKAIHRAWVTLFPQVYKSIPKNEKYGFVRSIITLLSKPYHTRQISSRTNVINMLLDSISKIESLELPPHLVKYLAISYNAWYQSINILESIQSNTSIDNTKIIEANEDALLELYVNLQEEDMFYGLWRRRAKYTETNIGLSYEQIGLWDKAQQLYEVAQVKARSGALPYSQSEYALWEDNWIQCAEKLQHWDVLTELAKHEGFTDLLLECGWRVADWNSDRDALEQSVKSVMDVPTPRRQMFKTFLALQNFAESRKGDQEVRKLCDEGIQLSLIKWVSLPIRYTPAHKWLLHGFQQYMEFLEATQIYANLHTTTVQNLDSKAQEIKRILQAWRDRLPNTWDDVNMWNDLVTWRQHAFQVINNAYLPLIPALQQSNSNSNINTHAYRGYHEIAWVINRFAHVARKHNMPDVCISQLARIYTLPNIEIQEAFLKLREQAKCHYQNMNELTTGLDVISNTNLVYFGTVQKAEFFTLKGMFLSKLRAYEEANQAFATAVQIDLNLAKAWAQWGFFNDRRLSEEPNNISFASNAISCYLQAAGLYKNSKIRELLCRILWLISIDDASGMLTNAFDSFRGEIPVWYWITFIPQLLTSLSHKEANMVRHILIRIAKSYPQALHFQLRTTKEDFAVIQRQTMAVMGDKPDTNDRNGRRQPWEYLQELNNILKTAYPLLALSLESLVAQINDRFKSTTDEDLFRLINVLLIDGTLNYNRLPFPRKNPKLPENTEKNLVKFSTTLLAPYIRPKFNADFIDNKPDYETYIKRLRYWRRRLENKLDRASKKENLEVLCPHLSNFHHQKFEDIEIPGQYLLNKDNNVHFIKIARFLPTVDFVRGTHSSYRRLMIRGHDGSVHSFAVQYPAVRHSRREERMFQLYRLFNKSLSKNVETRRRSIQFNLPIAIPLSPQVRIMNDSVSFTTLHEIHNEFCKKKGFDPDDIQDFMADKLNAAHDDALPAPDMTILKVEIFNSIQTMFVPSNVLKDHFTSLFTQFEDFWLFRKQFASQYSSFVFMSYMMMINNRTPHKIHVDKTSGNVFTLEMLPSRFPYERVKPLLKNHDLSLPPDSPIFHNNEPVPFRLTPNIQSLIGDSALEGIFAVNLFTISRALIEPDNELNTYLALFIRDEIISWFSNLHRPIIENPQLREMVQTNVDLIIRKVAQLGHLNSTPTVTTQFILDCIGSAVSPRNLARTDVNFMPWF

Binder	binding result [1]	other results
75-mer ssDNA, HIS4 promoter (ssDNA) DNA: GCAGGAGGACGTAGGGTAGGACTATGAACAGTAGTATACTGTGTATATAATAGATATGGAACGTTATATTCACCT		Kd [2]: 15 ± 11 nM
75-mer dsDNA, HIS4 TATA-box promoter (dsDNA) DNA 1: GCAGGAGGACGTAGGGTAGGACTATGAACAGTAGTATACTGTGTATATAATAGATATGGAACGTTATATTCACCT DNA 2: AGGTGAATATAACGTTCCATATCTATTATATACACAGTATACTACTGTTCATAGTCCTACCCTACGTCCTCCTGC		binding result [3]: binds

Second part, led by results:

binding result [1]	Binder	other results
binds	Taf12 (natural protein, S. cerevisiae (endogenous), UniProt Q03761 1-539, looked up) MSSNPENSGVNANNNTGTGNADAITGAQQNMVLQPRQLQEMAAKFRTLLTEARNVGETTPRGKELMFQAAKIKQVYDALTLNRRRQQAAQAYNNTSNSNSSNPASIPTENVPNSSQQQQQQQQQTRNNSNKFSNMIKQVLTPEENQEYEKLWQNFQVRHTSIKEKETYLKQNIDRLEQEINKQTDEGPKQQLQEKKIELLNDWKVLKIEYTKLFNNYQNSKKTFYVECARHNPALHKFLQESTQQQRVQQQRVQQQQQQQQQQQQQQQQQQQQQQQRQGQNQRKISSSNSTEIPSVTGPDALKSQQQQQNTITATNNPRGNVNTSQTEQSKAKVTNVNATASMLNNISSSKSAIFKQTEPAIPISENISTKTPAPVAYRSNRPTITGGSAMNASALNTPATTKLPPYEMDTQRVMSKRKLRELVKTVGIDEGDGETVIDGDVEELLLDLADDFVTNVTAFSCRLAKHRKSDNLEARDIQLHLERNWNIRIPGYSADEIRSTRKWNPSQNYNQKLQSITSDKVAAAKNNGNNVASLNTKK	
binds	Ada1 (natural protein, S. cerevisiae (endogenous), UniProt Q12060 1-488, looked up) MSAIQSPAPKPLQPTYPAASPASTNAYMKPGLIGSPAVSNHTEPNNGNNETAEPQGPNQRIDLGAMIEELTSLLGKESWTKYAQIISLFILGKLSRKELSNELELVFSPSAASLEKSNTNHHHSLVRLHNQLLLGIFANSLRENPLGRNGNESSWGFGNGSNNPNNKLKRINKHNSQIEVYKKIVMSLPLNDRNRLKMITKEAGKRGFIFCSVFQARLNNIPKIPIVTNPESLKRVKSNNLKTPLEWSQDIMNGFNVPLASESHSLPDTDSFYLRMVGIAREHGLVGTVDARCVELISLALDQYLKNIIEFTIDTVRYRRKKYSDYYDLNESGLYKSVSEMAADKRDAKIKQLDDDKNEDECADEAKSINNGNNSSKDDIGDISMSSITKAGEAVNEELHENRTISLTNEDIYDSLSIFPNLVEPSGSYYALTNLGLVNDDELVDMKSNIDDLPDFLNEKPTFTPLDERNVGTRHELNWLIKGILTED	
